Data: article PMC6181373
Several values for one entry are separate records, joined by “and”; a condition that tells them apart may be missing. Equal entries are not always repeated.

Experiments:
Test in all cases: SPRi
Conditions in all cases: 5' disulfide, aptamer on gold chip, 10 mM HEPES, 120 mM NaCl, 10 mM KCl, 5 mM MgCl2, pH 7.4, targets in PBS with 0.1% Tween, random-DNA signal subtracted, temperature …
[1] = tested on: HDL particle
[2] = biological target: LDL particle (all LDL-P; ApoB100 lipoprotein) (UniProt P04114)
[3] = biological target: LF-LDL (LDL subfraction particle; ApoB100 lipoprotein) (UniProt P04114)
[4] = biological target: SD-LDL (small dense LDL particle; ApoB100 lipoprotein) (UniProt P04114)
[5] = biological target: LDL particle (all LDL-P; ApoB100 lipoprotein) (UniProt P04114); remark: listed apart in the source

Sequence “AACTACATGGTATGTGGTGAACTACCTCGATTTTATATTATTTCGCTTACCAACAACTGCAGAGACGTACAATGTACCC [LDL-A1]” has a Kd [1] of 8260 pM, a Kd [2] of 53.1 pM and a Kd [3] of 32.7 pM. The Kd [4] was 302 pM and the Kd [5] was 21.4 pM.

For “AACTACATGGTATGTGGTGAACTAAACCATTCTTGTCTCGCATTTTTCTCTTTTATATTATTTGACGTACAATGTACCC [LDL-A38]”, the Kd [1] was 11500 pM, the Kd [2] was 45.5 pM and the Kd [4] was 234 pM. For the same sequence, the Kd [5] was 20.7 pM and 17.8 pM.

Work on “AACTACATGGTATGTGGTGAACTGTCAGCTTCTTCTATATAATTCACCTTGCCTCTCGTTCCTGACGTACAATGTACCC [LDL-A2]” yielded a Kd [1] of 7250 pM, a Kd [2] of 42.1 pM and a Kd [3] of 15.9 pM. For the same sequence, the Kd [5] was 15 pM and 5.12 pM.

“AACTACATGGTATGTGGTGAACTAACCTTAATTTACCCTTGTTTTATCATTTCCATCATAGCTGACGTACAATGTACCC [LDL-A12]” was tested, and the Kd [1] was 9690 pM, the Kd [2] was 49.7 pM and the Kd [4] was 23 pM. For the same sequence, the Kd [5] was 10.8 pM and 46.6 pM.
